{
  "source": "patent US20220332804A1",
  "about": "(CSL INNOVATION, published 2022)",
  "binders": {"B1": {"name": "RF16-242 (antibody, human IgG4 S228P, lambda, V domains shown)", "VH": "EVQLLQSGAEVKKPGESLKISCKGSGYSFTSYWIGWVRQMPGKGLEWMGIIYPGDSDTRYSPSFQGQVTISADKSISTAYLQWSSLKASDTAMYYCARRGHYGDYFDYWGQGTLVTVSS", "VL": "SYELTQPPSVSVSPGQTARITCSGDALPKKYAYWYHQKSGQAPVLVIYEDRRRPSEIPERFSGSSSGTMATLTITGAQVEDEGVYFCYSRDRAGNQRVFGGGTQLTVLG", "notes": "pH-dependent anti-C2 antibody from a phage display library"}},
  "assay_in_all_cases": "SPR, KD relative to WT C2;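 further: biacore SPR at 37 °C, anti-C2 mAbs captured on anti-human IgG chips with alanine or serine point mutants of C2 as analyte, KD from 1:1 fit compared with wild-type C2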",
  "key": {"human C2 S473A": {"molecular_target": "T1, human C2 S473A (human, UniProt P06681 21-752)", "T1 sequence": "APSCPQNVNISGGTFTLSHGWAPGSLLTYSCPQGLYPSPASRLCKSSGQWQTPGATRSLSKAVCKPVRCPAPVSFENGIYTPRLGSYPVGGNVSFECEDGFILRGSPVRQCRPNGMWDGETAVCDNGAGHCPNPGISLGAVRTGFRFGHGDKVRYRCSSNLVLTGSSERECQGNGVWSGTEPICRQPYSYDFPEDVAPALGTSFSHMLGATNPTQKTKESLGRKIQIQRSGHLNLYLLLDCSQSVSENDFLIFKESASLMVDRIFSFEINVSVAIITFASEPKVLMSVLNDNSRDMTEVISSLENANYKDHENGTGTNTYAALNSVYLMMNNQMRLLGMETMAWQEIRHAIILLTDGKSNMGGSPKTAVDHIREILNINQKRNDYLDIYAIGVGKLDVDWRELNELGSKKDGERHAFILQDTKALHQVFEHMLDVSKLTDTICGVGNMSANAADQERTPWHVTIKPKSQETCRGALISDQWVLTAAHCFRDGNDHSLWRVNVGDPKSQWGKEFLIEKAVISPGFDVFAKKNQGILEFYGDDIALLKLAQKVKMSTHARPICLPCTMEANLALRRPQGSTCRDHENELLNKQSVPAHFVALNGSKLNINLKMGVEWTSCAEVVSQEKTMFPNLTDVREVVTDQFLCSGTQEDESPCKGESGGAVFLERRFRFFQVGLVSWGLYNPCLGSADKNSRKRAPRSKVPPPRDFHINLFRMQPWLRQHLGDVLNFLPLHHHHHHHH"}, "human C2 D282A": {"molecular_target": "T2, human C2 D282A (human, UniProt P06681 21-752)", "T2 sequence": "T1 sequence with D262A, A453S"}, "human C2 L271A": {"molecular_target": "T3, human C2 L271A (human, UniProt P06681 21-752)", "T3 sequence": "T1 sequence with L251A, A453S"}, "human C2 M452A": {"molecular_target": "T4, human C2 M452A (human, UniProt P06681 21-752)", "T4 sequence": "T1 sequence with M432A, A453S"}},
  "note": "Changes are numbered by the printed parent chain.",
  "data": [
    {"binder": "B1", "values": [
      {"measurement": "Fold diff", "setting": "human C2 S473A", "value": 2, "unit": "fold"},
      {"measurement": "Fold diff", "setting": "human C2 D282A", "value": 1, "unit": "fold"},
      {"measurement": "Fold diff", "setting": "human C2 L271A", "value": 1, "unit": "fold"},
      {"measurement": "Fold diff", "setting": "human C2 M452A", "value": 1, "unit": "fold"}
    ]}
  ]
}
